How the values were obtained:
[1] = biological target: human epidermal growth factor receptor 1 (EGFR1), on the surface of HSC-2 and FaDu tumor cells (human) (UniProt P00533); experiment: flow cytometry, AlexaFluor488-labeled compound 5 ug/ml, 3 h at +37 C, FaDu cells; cell surface bound plus internalized, normalized to degree of labeling
[2] = biological target: human epidermal growth factor receptor 1 (EGFR1), on the surface of HSC-2 and FaDu tumor cells (human) (UniProt P00533); experiment: flow cytometry, AlexaFluor488-labeled compound 5 ug/ml, 3 h at +37 C, HSC-2 cells; cell surface bound plus internalized, normalized to degree of labeling
[3] = biological target: human epidermal growth factor receptor 1 (EGFR1), on the surface of HSC-2 and FaDu tumor cells (human) (UniProt P00533); experiment: tritium-labeled compound 5 ug/ml, 3 h at +37 C, FaDu cells, scintillation counting of cell lysate; internalized plus cell surface bound; mean +/- S.D. of three

| Normalized mean fluorescence intensity [1] | Normalized mean fluorescence intensity [2] | % internalized/100000 cells [3] [%] | Substance |
| --- | --- | --- | --- |
| 443 | 823 | – | Control-F(ab')2 (F(ab')2 fragment of omalizumab) |
| – | 700 | 0.01 | Control-mAb (omalizumab, anti-IgE) (antibody) |
| 970 | 1160 | – | Control-Fab (Fab fragment of omalizumab) |

Reference: US20190240330A1
